This is an account of results in the supplement of paper PMC10567573.

Sequences and labels used below:
B1: PWWP2B (parent)
chain: TIRLRPRQVLCEKCKSTLSPPEAS
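Further: lentivirally expressed fusions sorted by FACS into six bins by GFP to DsRed ratio, PSI derived from sequencing read proportions per bin multiplied by bin number.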

Variants of B1 are the subject of the data set. Briefly: protein stability index of a GFP-peptide fusion (GPS, HEK-293T) (PSI 1-6); higher = more stable. Particulars: c terminus: a fixed tail appended.
Take TIRDRPRQVLCEKCKSTLSPPEAS [L4D]: the protein stability index was determined as 4.18.
For the variant TIRQRPRQVLCEKCKSTLSPPEAS [L4Q], the protein stability index worked out at 3.04.
Turning to TSRLRPRQVLCEKCKSTLSPPEAS [I2S], the protein stability index turned out to be 3.64.
As for TTRLRPRQVLCEKCKSTLSPPEAS [I2T], the protein stability index turned out to be 3.85.
Regarding TRRLRPRQVLCEKCKSTLSPPEAS [I2R], the protein stability index was determined as 3.11.
To TKRLRPRQVLCEKCKSTLSPPEAS [I2K] belongs 2.98; to TMRLRPRQVLCEKCKSTLSPPEAS [I2M], 2.76.
On to TWRLRPRQVLCEKCKSTLSPPEAS [I2W], for which the protein stability index came to 3.
For the variant TPRLRPRQVLCEKCKSTLSPPEAS [I2P], the protein stability index was determined as 4.11.
On to THRLRPRQVLCEKCKSTLSPPEAS [I2H], for which the protein stability index stood at 3.54.
The same measure for TARLRPRQVLCEKCKSTLSPPEAS [I2A]: 3.61; for TFRLRPRQVLCEKCKSTLSPPEAS [I2F]: 3.54; for TGRLRPRQVLCEKCKSTLSPPEAS [I2G]: 3.27.
For TNRLRPRQVLCEKCKSTLSPPEAS [I2N], the protein stability index is 4.05.
Take TQRLRPRQVLCEKCKSTLSPPEAS [I2Q]: the protein stability index amounted to 3.63.
With TYRLRPRQVLCEKCKSTLSPPEAS [I2Y], the protein stability index came out at 3.04.
The same measure for TVRLRPRQVLCEKCKSTLSPPEAS [I2V]: 3.24.
For the variant TERLRPRQVLCEKCKSTLSPPEAS [I2E], the protein stability index was found to be 3.67.
With TLRLRPRQVLCEKCKSTLSPPEAS [I2L], the protein stability index came out at 3.35.
Regarding TDRLRPRQVLCEKCKSTLSPPEAS [I2D], the protein stability index is 3.68.
The same measure for TCRLRPRQVLCEKCKSTLSPPEAS [I2C]: 3.7; for GIRLRPRQVLCEKCKSTLSPPEAS [T1G]: 3.09; for DIRLRPRQVLCEKCKSTLSPPEAS [T1D]: 3.76.
Take EIRLRPRQVLCEKCKSTLSPPEAS [T1E]: the protein stability index is 3.55.
As to AIRLRPRQVLCEKCKSTLSPPEAS [T1A], the protein stability index came to 2.59.
As for RIRLRPRQVLCEKCKSTLSPPEAS [T1R], the protein stability index is 2.65.
For the variant SIRLRPRQVLCEKCKSTLSPPEAS [T1S], the protein stability index stood at 2.98.
In the case of WIRLRPRQVLCEKCKSTLSPPEAS [T1W], the protein stability index is 2.12.
As to CIRLRPRQVLCEKCKSTLSPPEAS [T1C], the protein stability index was 2.91.
The same measure for QIRLRPRQVLCEKCKSTLSPPEAS [T1Q]: 3.11.
In the case of NIRLRPRQVLCEKCKSTLSPPEAS [T1N], the protein stability index turned out to be 3.63.
For the variant PIRLRPRQVLCEKCKSTLSPPEAS [T1P], the protein stability index came out at 3.43.
Consider KIRLRPRQVLCEKCKSTLSPPEAS [T1K], for which the protein stability index turned out to be 2.98.
The same measure for LIRLRPRQVLCEKCKSTLSPPEAS [T1L]: 2.28; for FIRLRPRQVLCEKCKSTLSPPEAS [T1F]: 1.72.
Consider IIRLRPRQVLCEKCKSTLSPPEAS [T1I], for which the protein stability index is 2.44.
Regarding VIRLRPRQVLCEKCKSTLSPPEAS [T1V], the protein stability index turned out to be 2.78.
As for HIRLRPRQVLCEKCKSTLSPPEAS [T1H], the protein stability index stood at 2.8.
As to MIRLRPRQVLCEKCKSTLSPPEAS [T1M], the protein stability index amounted to 2.23.
Consider YIRLRPRQVLCEKCKSTLSPPEAS [T1Y], for which the protein stability index was 1.76.
With TIRLWPRQVLCEKCKSTLSPPEAS [R5W], the protein stability index turned out to be 2.9.
Take TIRLIPRQVLCEKCKSTLSPPEAS [R5I]: the protein stability index turned out to be 2.93.
With TIRLMPRQVLCEKCKSTLSPPEAS [R5M], the protein stability index stood at 3.22.
Regarding TIRLSPRQVLCEKCKSTLSPPEAS [R5S], the protein stability index worked out at 3.43.
As for TIRLCPRQVLCEKCKSTLSPPEAS [R5C], the protein stability index amounted to 2.77.
For TIRLPPRQVLCEKCKSTLSPPEAS [R5P], the protein stability index is 3.54.
Turning to TIRLQPRQVLCEKCKSTLSPPEAS [R5Q], the protein stability index was determined as 3.
As for TIRLTPRQVLCEKCKSTLSPPEAS [R5T], the protein stability index was determined as 3.1.
As for TIRLFPRQVLCEKCKSTLSPPEAS [R5F], the protein stability index was found to be 3.19.
The same measure for TIRLYPRQVLCEKCKSTLSPPEAS [R5Y]: 2.73.
The same measure for TIRLVPRQVLCEKCKSTLSPPEAS [R5V]: 3.52.
The same measure for TIRLGPRQVLCEKCKSTLSPPEAS [R5G]: 3.37; for TIRLLPRQVLCEKCKSTLSPPEAS [R5L]: 2.91.
TIRLHPRQVLCEKCKSTLSPPEAS [R5H]: the protein stability index amounted to 3.16.
Consider TIRLEPRQVLCEKCKSTLSPPEAS [R5E], for which the protein stability index was 4.03.
Take TIRLDPRQVLCEKCKSTLSPPEAS [R5D]: the protein stability index was 3.73.
The same measure for TIRLNPRQVLCEKCKSTLSPPEAS [R5N]: 2.78.
As for TIRLKPRQVLCEKCKSTLSPPEAS [R5K], the protein stability index came out at 2.96.
For the variant TIRLAPRQVLCEKCKSTLSPPEAS [R5A], the protein stability index came out at 3.34.
For TIRLRPGQVLCEKCKSTLSPPEAS [R7G], the protein stability index was determined as 3.12.
To TIRLRPQQVLCEKCKSTLSPPEAS [R7Q] belongs 3.38; to TIRLRPFQVLCEKCKSTLSPPEAS [R7F], 2.94; to TIRLRPMQVLCEKCKSTLSPPEAS [R7M], 2.92.
Consider TIRLRPAQVLCEKCKSTLSPPEAS [R7A], for which the protein stability index was 3.48.
As for TIRLRPSQVLCEKCKSTLSPPEAS [R7S], the protein stability index is 3.01.
On to TIRLRPPQVLCEKCKSTLSPPEAS [R7P], for which the protein stability index worked out at 3.33.
As for TIRLRPVQVLCEKCKSTLSPPEAS [R7V], the protein stability index came out at 2.96.
TIRLRPKQVLCEKCKSTLSPPEAS [R7K]: the protein stability index was 2.99.
Take TIRLRPEQVLCEKCKSTLSPPEAS [R7E]: the protein stability index came out at 3.9.
For TIRLRPLQVLCEKCKSTLSPPEAS [R7L], the protein stability index was 2.62.
To TIRLRPDQVLCEKCKSTLSPPEAS [R7D] belongs 3.85; to TIRLRPWQVLCEKCKSTLSPPEAS [R7W], 2.16.
As to TIRLRPHQVLCEKCKSTLSPPEAS [R7H], the protein stability index was 3.1.
For the variant TIRLRPIQVLCEKCKSTLSPPEAS [R7I], the protein stability index was determined as 2.9.
With TIRLRPCQVLCEKCKSTLSPPEAS [R7C], the protein stability index stood at 3.2.
Consider TIRLRPNQVLCEKCKSTLSPPEAS [R7N], for which the protein stability index is 2.87.
As for TIRLRPYQVLCEKCKSTLSPPEAS [R7Y], the protein stability index turned out to be 2.69.
To TIRLRPTQVLCEKCKSTLSPPEAS [R7T] belongs 3.31.
As for TIRLRPRQVFCEKCKSTLSPPEAS [L10F], the protein stability index was found to be 1.94.
Turning to TIRLRPRQVPCEKCKSTLSPPEAS [L10P], the protein stability index came to 3.37.
Consider TIRLRPRQVSCEKCKSTLSPPEAS [L10S], for which the protein stability index is 3.13.
The same measure for TIRLRPRQVGCEKCKSTLSPPEAS [L10G]: 3.17; for TIRLRPRQVNCEKCKSTLSPPEAS [L10N]: 3.53.
As to TIRLRPRQVECEKCKSTLSPPEAS [L10E], the protein stability index stood at 3.35.
To TIRLRPRQVRCEKCKSTLSPPEAS [L10R] belongs 2.84; to TIRLRPRQVKCEKCKSTLSPPEAS [L10K], 3.38; to TIRLRPRQVTCEKCKSTLSPPEAS [L10T], 3.43.
For the variant TIRLRPRQVDCEKCKSTLSPPEAS [L10D], the protein stability index was determined as 3.9.
Turning to TIRLRPRQVQCEKCKSTLSPPEAS [L10Q], the protein stability index came out at 3.53.
TIRLRPRQVICEKCKSTLSPPEAS [L10I]: the protein stability index was 2.83.
In the case of TIRLRPRQVACEKCKSTLSPPEAS [L10A], the protein stability index was 3.44.
Take TIRLRPRQVHCEKCKSTLSPPEAS [L10H]: the protein stability index was 3.3.
Consider TIRLRPRQVCCEKCKSTLSPPEAS [L10C], for which the protein stability index was determined as 3.21.
For TIRLRPRQVMCEKCKSTLSPPEAS [L10M], the protein stability index came to 2.83.
